# Experimental data from the DeepSol protein solubility set.
# Experiment: soluble on expression in E. coli; label from the status in PepcDB or PDB records
row,Sequence,soluble on expression in E. coli
1,MIISPLFLKDKSNSEDDASWVSRMMPVDPERGFPLNSHRSWHGGIHIPHTDSGGTPEKIRAIADGTVHSLRQPVGDKKGIPPYNYNGATDCGYVLLKHETEIGSGENAKVVYFSLYMHLASIDAAVKTGEKIYRKDPIGTVGQVDGGNAVHFQIFCDDTNLTKLVGRTTPELDLTKNGRTDAVYGDMYFYLPTGTKFYSHAPANNATTTTEAETYTSTEPLFVSMSFDKGKCTMLTRKKGVFSIGKYSEVGEKLENTDGADYEYNVYAQAKKLYPQSQSAGYELLRFGRVINTDYETLVPADAPLWRTISYPGGKGVVNLALPAVKKFSDGDFPHWTGWQLIDDDTDENSQCNSEQVLCRIGDDMQGLICHLPLEWDASTLEKRLSWLKTTVINESLANQKASHQVDDTGNNASGYAFDNINPDMSVLNAQSTPSFEQAAKDTAMAEADWNALIEHAKALCFDVSGLPVGRVWHFNPISFIAHFRKCGWLDPEKIKSILTSALNKKRNVRKITLIEKASDSNYTFLNLAMRKYNILTPNRQSHFLGQGAVESDSLTAMQEVSQEQVIVNGKQTGGGIVIKSTLNESELGHWYGSEPSELDIYYSGNKYNKNGGLIAGSYSWSNGNCGDVDAQKFRGRGFKMLTGRDKYADYWVYRGWLLKSSFDAYWWDDVKYKSKNLKAMKKRPAIIDDPHKITASPYNCIDSGSFFITCFRRSTVKEIDKDQAESADDSVVTKVTQAINGGDIGLSQRKVMTNNAKGKLNDKY,not soluble
2,MIITEKRHELILEELSHKDFLTLQELIDRTGCSASTIRRDLSKLQQLGKLQRVHGGAMLKENRMIEANLTEKLATNLDEKKMIAKIAANQINDNECLFIDAGSSTLELIKYIQAKDIIVVTNGLTHVEALLKKGIKTIMLGGQVKENTLATIGSSAMEILRRYCFDKAFIGMNGLDIELGLTTPDEQEALVKQTAMSLANQSFVLIDHSKFNKVYFARVPLLESTTIITSEKALNQESLKEYQQKYHFIGGTLLEHHHHHH,soluble
3,MIKEAIKQLAQDIGISKIGFTTADDFDYLEKSLRASVEEGRSSGFEHKNIEERIKPRLSLASAKTIISIAIAYPHKLPVKPPKTQYKRGKITPNSWGLDYHYVLEEKLQRLAQGIESLCQDFPLEHKIMVDTGALVDTAVAQRSGIGFIGKNGLVISKEFGSYMYLGELITNLEIEPDSPVDYDCGDCHRCLDACPTSCLLGDGSMNAKRCLSFQTQDKGMMDLEFRKKIKTVIYGCDICQICCPYNKGIHNPLASEIDPELAEPELLPFLELSNSQFKKKFGMIAGSWRGKNTLQRNAIIALANGHDKSALVKLMEIIDKNNNPIHTATAIWALGEIVKKPTQELYDFILSIHSDNDAIIKERTALLNRWQF,not soluble
4,MIKGMKTRGERLKARRLELKLTLKQVAEAVGISLPGVQNLERGDVMPSLEIGLSLAKCLRKPVQWILYGTESDPDRVPVIGTTETGPDRDWQPGEPANTERFLPFVSQRNTVYALTVGNQIQRNYQPGDVILVDSSLTLVPGEDVLVCDNNGEITIQRLARYDEQHYYLDSANSQRVIHDKSDLQFVHQVVGTIKSFMVEGR,not soluble
5,MIKKIYFGNDHAAYEIKDQIITHLKQKGYQIIDEGAQAALGSVDYSTYALKVANDVVNDTKNDSIGILLCGTGIGMNIAASKVHGTRVALVYNESSAKLAKEHNNANIITIGARENSLNQILKMIDDFLTSKFLGERHQKRLDIIAKYEKEQNS,soluble
6,MIKKQDPLNHPESVDVAIIGAGPAGAVAAALLRQAGQQVLVLERQHFPRFSIGESLLPQSMAYLEQAGMLRAVVEAGFQYKNGAYFVHGDKTAAFDFRDKHSDGWGTTYQVERAAFDQILINCAADQGADVRFGHSVRAVQPGDAPVLEVQTESGDTYTVHARFILDASGFGRVLPRLLNLEAPTGMPLRAALFSHVQDALPAGMTDRNKICIAVHPERRDVWYWMIPLANGRSSVGCVAEASFLDIPEAEREAALRALIRAEPNIASLIGDAPFLMPVRHIGGYAANVEKLHGPGYALLGNAGEFLDPVFSSGVTIALRSADLAVRALLRQLAGETVDWQSVYDVPLRRGIDTFRAFIERWYTGELQDIIFHPQQAPGIRRMISAILAGYAWDETNPFVADPVRRLNTLHEVCRLEAVLEHHHHHH,not soluble
7,MIKKVVNLIMTKERRTFSSEFKLQMVRLYKNGKLKNEIIRKYDLKPSIISNSIKQHQNTGPFNHQDNLKSDEKELIKLRKEVQHLKMEHDVLKQILKLILEHHHHHH,not soluble
8,MIKQIGTVAVYVEDQQKAKQFWTEKVGFDIAADHPMGPEASWLEVAPKGAETRLVIYPKAMMKGSEQMKASIVFECEDIFGTYEKMKTNGVEFLGEPNQMEWGTFVQFKDEDGNVFLLKE,not soluble
9,MIKQRTLKQSIKVTGVGLHSGEKVTLTLRPAMPNTGVVYYRTDLNPAVAFPADPNSVRDTMLCTALINEQGVRISTVEHLNAALAGLGIDNIIIEVDAPEIPIMDGSASPFIYLLLDAGIEEQNAAKKFIRIKQYVRVEDGDKWAEFKPYNGFRLDFTIDFDHPAIGKDVRNYEMNFSAQAFVHQISRARTFGFMKDIEYLQSQGLVLGGSLDNAIVLDDYRILNEDGLRFKDELVRHKMLDAIGDLYMAGYNIIGDFKAYKSGHGLNNKLLRAVLANQEAWEFVTFEDKAQVPQGYVAPVQVLILEHHHHHH,soluble
10,MIKRNLLVMGLAVLLSACGFQLRGTGTTELAIKELDVSARNAYGETVTQLTRLLTSSGVKVYTGAPYKLILTSENETQRTISFSGSGRSAEYQLTNTLTYEIHGDRDRLLLDNKVSADRSYVHDGNNLTGSDQEASQVRQEMRNDLIQKLMARLQQLTPSRLDELQAKADAVAKAEADALEAAQRIRDETPQQSPVEVPARLEHHHHHH,not soluble
11,MIKVALPKGRLFEETVDLLLKRGIIEKRIEEGRKLILEEGGITFFLVKPSDVPVYVESGVSDLGVCGYDVYLEKKPSVYRLMDLGIGFCRIAVAGKPESEEKYFSSTHISVATKYPNIAYEFFKKKGVKADIYYLNGSVELAPLVGLSDFILDLVQTGRTLKENGLIVIEEVGKSTAWLIANKDSFRIKNGQIMEFLSRLVQHNKDGLQVQGSSLEHHHHHH,not soluble
12,MILIADSGSTKTDWCVVLNGAVIKRLGTKGINPFFQSEEEIQQKLTASLLPQLPEGKFNAVYFYGAGCTPEKAPVLRRAIADSLPVIGNIKANSDMLAAAHGLCGQKAGIACILGTGSNSCFYNGKEIVSNISPLGFILGDEGSGAVLGKLLVGDILKNQLPATLKEEFLKQFDLTPPEIIDRVYRQPFPNRFLASLSPFIAQHLEEPAIRQLVMNSFIAFFRRNVMQYDYKQYPVHFIGSIAYCYKEILQDAARQTGIQIGKILQSPMEGLIQYHSQLSFHPLEHHHHHH,soluble
13,MILLDTNVISEPLRPQPNERVVAWLDSLILEDVYLSAITVAEMRLGVALLLNGKKKNVLHERMEQSILPLFAGRILPFDEPVAAIYAQIRSYAKTHGKEIAAADGYIAATAKQHSMTVATRDTGSFFAADVAVFNPWHLEHHHHHH,soluble
14,MILLSVHDSFLLDHNLPSACDKVFERLLDVTNSSFGFIATLQEDEDGQSLYLPAISNLAWDEETLTWYRHQRRTHGGLRLRKLDNLFGHVVTHNTVVCTNSLLRQKAGRDLPPIHPALHSLLGIPITHNGKTVGMIALANRREGYDQTMIELEHHHHHH,not soluble
15,MILNIRKMGNSQGVILPKSLLGQIGAVDSLAVTVEKGNIILSCPTVRRGWAEAAAMLVETEQEHFFSEIENEADKEWIW,not soluble
16,MIMGFWNGVAKAAKAVGEGMIEAGNEHKALKMEYAEKSSEELHEIVKSDGFFKNSTREKSAAYAILKERGEV,not soluble
17,MINANRPIINLDLDLLRTFVAVADLNTFAAAAAAVCRTQSAVSQQMQRLEQLVGKELFARHGRNKLLTEHGIQLLGYARKILRFNDEACSSLMFSNLQGVLTIGASDESADTILPFLLSRISSVYPKLALDVRVKRNAYMVDMVKSQEVDLVVTTNQPHSLDCLNLRTSPTHWYCAAEYVLQRGEPVPLVLLDDPSPFRDMVLETLNAAGIPWRLAYVASTLPAVRAAVKAGLGVTARPVEMMSPDLRVLGAADGLPPLPDTEYLLCRDPNSQNELAMVIFHAMESYQNPWHYNQFSAEGGDDPLMVEGGFE,not soluble
18,MINIIGLGPGNLDYITKKGENLISTSDVLIGGKRNLESIKNFEGEKIVLDSNLREIIEYINNNKEKQISIIASGDPLIYGIGRYLSKNIDNKMLNMVSGISSLQYIFSKIYVDMNDVYITSSHGKVPDFDYILSHKKVCMVTDSKIGPKQISREIIDRNLNKIIVVGENLSYDNEKITIAKPEEIIRIDNFDMNVVVILDEE,not soluble
19,MINIYYNVEPLRSNEEITDFVNKARNGTHGERNALLILIGLNTGLRMSDILNLKVGQIRYHDIVHITEKKTKKRRVILLTRLRPQINHYIKDLPDNEYLFTNRQHQPLSVNAVYKLFQTIARKMHRTDIGTHTLRKTFGYHYYQQTHDIGTLMMIFNHSNEAITKRYIGLNQDVILKQMAGFQLGLEYEKATNMR,not soluble
20,MINKPNQFLNHLDGLKQHFSDYDSLQKSFKKYLSENQTELNNFFFNQFEKIIVLVKKKEFKTAQERCEEELATPYFSKPLVGFFQSLLQLINHDLIEQKNQQLANMSCEKIVEMVLSDYPNKLNLIHYLLAKEASFVNPNLLQRMTFVLTDLELLELKRFSFFKALNQIPAFKNHKVTYFNSKLKQKFVITLGEFAFPQTDKTKQFFQQLIKKVSQLFLKEPVSCEFAYEIIDALLVSFFPLHPNLEVNHLAKKIHQYVSKIVINEVVDLKDPTTKLIVDTLYEQLDRAIGEEN,soluble
21,MINMTRKLYYEDAYLKEAKGRVLEIRDNAILLDQTIFYPTGGGQPHDRGTINGVEVLDVYKDEEGNVWHVVKEPEKFKVGDEVELKIDWDYRYKLMRIHTGLHLLEHVLNEVLGEGNWQLVGSGMSVEKGRYDIAYPENLNKYKEQIISLFNKYVDEGGEVKIWWEGDRRYTQIRDFEVIPCGGTHVKDIKEIGHIKKLKRSSIGRGKQRLEMWLE,soluble
22,MINSINIQIRETNTDDFDSIMTVEKQAFGYDKEAQLVADLLADKTAEPMVSLLAFYKGEAVGHILFTRAYFDGQGALQMMHILAPLAVKPEYQRQGIGGMLIRAGIERLQEKGSCLVFVLGHKEYYPEYGFIPDAARLGYPAPYPILEQFSDYWMVQAISPKGFDVDKGKIRCSDELNKPEHWRDDESDR,not soluble
23,MIPLSIRVPASTANVGPGFDSVGIALSLYLHVVVKEKSDKWQVIHSFEDSIPTDDKNLIVSTACKVCPSLSPHIIEVTSNIPLTRGLGSSASAIVAGIELANQLGKLNLTIDQKVQIATNFEGHPDNVAASILGGTVIGALDGKNVSVVRIESKELGVISLIPNEELNTDESRSVLPDVFPFHEAVKASAISNVLVAALCQKKWKVVGEMMERDHFHEPYRLELVPLLPSIRKCAKEFGAYGTALSGAGPSIFILTPYEKRQEIAEQLARVFTSMKVCELEIDHRGITVNKKEHIGL,not soluble
24,MIPLVSIIVPMYNVEPFIEECIDSLLRQTLSDIEIILVNDGTPDRSGEIAEDYAKRDARIRVIHQANGGLSSARNTGIKAARGTYIGFVDGDDYVSSAMFQRLTEEAEQNQLDIVGCGFYKQSSDRRTYVPPQLEANRVLTKPEMTEQLKHAHETRFIWYVWRYLYRRELFERANLLFDEDIRFAEDSPFNLSAFREAERVKMLDEGLYIYRENPNSLTEIPYKPAMDEHLQKQYQAKIAFYNHYGLAGACKEDLNVYICRHQLPMLLANACASPNSPKDIKKKIRQILSYDMVRQAVRHTPFQHEKLLRGERLVLALCKWRLTFLIKLFFEQRGTMKGSAKQALEHHHHHH,not soluble
25,MIPMEELKVKKITNGTVIDHIDAGKALMVFKVLNVPKETSVMIAINVPSKKKGKKDILKIEGIELKKEDVDKISLISPDVTINIIRNGKVVEKLKPQIPDEIEGTLKCTNPNCITNKEKVRGKFKIESKNPLKIRCYYCEKFLNEVIFE,soluble
